Biological target: UVR8^HY5C44 chimera (recombinant) (Arabidopsis)
Assay: SEC; purified recombinant chimeric UVR8 proteins alone, in the absence of UV-B

UVR8^HY5C44 chimera (recombinant) was tested, and the stoichiometry N was 2.

From paper PMC6745501, “Plant photoreceptors and their signaling components compete for COP1 binding via VP peptide motifs” (The EMBO Journal, 2019)
